One block for each sequence: values may come before it.
How the values were obtained:
HLA-B*51:01 [1] = assay: IEDB peptide-MHC binding, purified MHC/direct/fluorescence; filed as Kd, often an IC50 or EC50 that approximates it; ≥ and ≤ were set here for values at or beyond the usual limits of such assays; details: source organism: Yellow fever virus
HLA-C*03:03 = assay: as above
HLA-B*35:01 = assay: as above; details: source organism: Yellow fever virus
HLA-A*02:01 [2] = assay: IEDB peptide-MHC binding, purified MHC/competitive/fluorescence; filed as Kd, often an IC50 or EC50 that approximates it; ≥ and ≤ were set here for values at or beyond the usual limits of such assays
HLA-A*01:01 [3] = assay: IEDB peptide-MHC binding, purified MHC/direct/fluorescence; filed as Kd, often an IC50 or EC50 that approximates it; ≥ and ≤ were set here for values at or beyond the usual limits of such assays
HLA-A*31:01 [4] = assay: as above
HLA-A*11:01 = assay: as above
HLA-B*08:02 = assay: as above; details: source organism: West Nile virus strain PTRoxo
HLA-A*03:01 [5] = assay: as above
HLA-B*44:02 [6] = assay: as above; details: source organism: West Nile virus
HLA-B*57:01 [7] = assay: as above; details: source organism: West Nile virus
HLA-B*58:01 [8] = assay: as above
HLA-B*18:01 [9] = assay: as above; details: source organism: West Nile virus
HLA-B*48:01 = assay: as above; details: source organism: West Nile virus
HLA-B*40:01 = assay: as above
HLA-B*27:05 = assay: as above
HLA-A*31:01 [10] = assay: IEDB peptide-MHC binding, purified MHC/competitive/fluorescence; filed as Kd, often an IC50 or EC50 that approximates it; ≥ and ≤ were set here for values at or beyond the usual limits of such assays
HLA-A*02:03 = assay: as above; details: source organism: Escherichia coli
HLA-A*02:11 = assay: as above; details: source organism: Escherichia coli
HLA-A*02:12 = assay: as above; details: source organism: Escherichia coli
HLA-A*02:06 = assay: as above; details: source organism: Escherichia coli
HLA-B*15:01 [11] = assay: IEDB peptide-MHC binding, purified MHC/direct/fluorescence; filed as Kd, often an IC50 or EC50 that approximates it; ≥ and ≤ were set here for values at or beyond the usual limits of such assays
HLA-A*69:01 = assay: as above; details: source organism: Escherichia coli
HLA-B*08:01 = assay: as above; details: source organism: Escherichia coli
HLA-A*24:03 = assay: as above
HLA-A*02:01 [12] = assay: as above; details: source organism: Escherichia coli
HLA-B*07:02 = assay: as above; details: source organism: Escherichia coli
HLA-A*26:01 [13] = assay: as above; details: source organism: Escherichia coli
HLA-A*01:01 [14] = assay: IEDB peptide-MHC binding, purified MHC/competitive/radioactivity; filed as Kd, often an IC50 or EC50 that approximates it; ≥ and ≤ were set here for values at or beyond the usual limits of such assays; details: source organism: Dengue virus 3 Martinique/1243/1999
HLA-B*51:01 [15] = assay: as above; details: source organism: Dengue virus 3 Martinique/1243/1999
HLA-B*58:01 [16] = assay: as above
HLA-C*06:02 = assay: IEDB peptide-MHC binding, purified MHC/direct/fluorescence; filed as Kd, often an IC50 or EC50 that approximates it; ≥ and ≤ were set here for values at or beyond the usual limits of such assays
HLA-B*44:03 = assay: IEDB peptide-MHC binding, purified MHC/competitive/radioactivity; filed as Kd, often an IC50 or EC50 that approximates it; ≥ and ≤ were set here for values at or beyond the usual limits of such assays; details: source organism: Dengue virus 3 Sri Lanka/1266/2000
HLA-B*44:02 [17] = assay: as above; details: source organism: Dengue virus 3 Sri Lanka/1266/2000
HLA-B*53:01 = assay: as above; details: source organism: Dengue virus 3 Sri Lanka/1266/2000
HLA-A*03:01 [18] = assay: IEDB peptide-MHC binding, purified MHC/competitive/fluorescence; filed as Kd, often an IC50 or EC50 that approximates it; ≥ and ≤ were set here for values at or beyond the usual limits of such assays
HLA-B*46:01 [19] = assay: IEDB peptide-MHC binding, purified MHC/direct/fluorescence; filed as Kd, often an IC50 or EC50 that approximates it; ≥ and ≤ were set here for values at or beyond the usual limits of such assays; details: source organism: Yellow fever virus
HLA-B*39:01 = assay: IEDB peptide-MHC binding, purified MHC/competitive/fluorescence; filed as Kd, often an IC50 or EC50 that approximates it; ≥ and ≤ were set here for values at or beyond the usual limits of such assays; details: source organism: Escherichia coli
HLA-A*26:01 [20] = assay: as above
HLA-B*46:01 [21] = assay: as above; details: source organism: Pan troglodytes
HLA-B*15:01 [22] = assay: as above; details: source organism: Pan troglodytes
HLA-B*27:03 = assay: as above; details: source organism: Pan troglodytes
HLA-B*57:01 [23] = assay: as above; details: source organism: Pan troglodytes
HLA-B*18:01 [24] = assay: as above; details: source organism: Pan troglodytes
HLA-C*15:02 = assay: IEDB peptide-MHC binding, purified MHC/direct/fluorescence; filed as Kd, often an IC50 or EC50 that approximates it; ≥ and ≤ were set here for values at or beyond the usual limits of such assays; details: source organism: Pan troglodytes
HLA-C*14:02 = assay: as above; details: source organism: Pan troglodytes
[25] = source organism: Yellow fever virus
[26] = source organism: Vaccinia virus WR
[27] = source organism: West Nile virus
[28] = source organism: Mammarenavirus juninense
[29] = source organism: Escherichia coli
[30] = source organism: Escherichia coli E22
[31] = source organism: Pan troglodytes

Sequence: AATIRVLAL
- Kd (HLA-B*51:01 [1]): ≥ 20000 nM
- Kd (HLA-C*03:03; [25]): 9 nM
- Kd (HLA-B*35:01): ≥ 20000 nM

Sequence: GLNDYLHSV
- Kd (HLA-A*02:01 [2]; [26]): 1.6 nM
- Kd (HLA-C*03:03; [26]): ≥ 20000 nM

Sequence: ILRNPGYAL
- Kd (HLA-A*01:01 [3]; [27]): ≥ 20000 nM
- Kd (HLA-A*31:01 [4]; [27]): ≥ 20000 nM
- Kd (HLA-A*11:01; [27]): ≥ 20000 nM
- Kd (HLA-C*03:03; [27]): 157 nM
- Kd (HLA-B*08:02): ≥ 20000 nM
- Kd (HLA-A*03:01 [5]; [27]): ≥ 20000 nM
- Kd (HLA-B*44:02 [6]): ≥ 20000 nM
- Kd (HLA-B*57:01 [7]): ≥ 20000 nM
- Kd (HLA-B*58:01 [8]; [27]): ≥ 20000 nM
- Kd (HLA-B*18:01 [9]): ≥ 20000 nM
- Kd (HLA-B*48:01): ≥ 20000 nM
- Kd (HLA-B*40:01; [27]): ≥ 20000 nM
- Kd (HLA-B*27:05; [27]): ≥ 20000 nM

Sequence: KLFDLHGRR
- Kd (HLA-A*31:01 [10]; [28]): 11.1 nM
- Kd (HLA-A*03:01 [5]; [28]): 241 nM

Sequence: KVLCPYMPK
- Kd (HLA-A*31:01 [10]; source organism: Japanese encephalitis virus): 60.5 nM
- Kd (HLA-A*11:01; [27]): 3.7 nM
- Kd (HLA-A*03:01 [5]; [27]): 562 nM

- Kd (HLA-A*02:03): ≤ 0.1 nM
- Kd (HLA-A*02:11): ≤ 0.1 nM
- Kd (HLA-A*02:12): ≤ 0.1 nM
- Kd (HLA-A*02:06): 2.85 nM
- Kd (HLA-A*01:01 [3]; [29]): ≥ 20000 nM
- Kd (HLA-A*31:01 [4]; [29]): 562 nM
- Kd (HLA-A*11:01; [29]): ≥ 20000 nM
- Kd (HLA-B*15:01 [11]; [29]): 234 nM
- Kd (HLA-A*69:01): 4.76 nM
- Kd (HLA-A*03:01 [5]; [29]): ≥ 20000 nM
- Kd (HLA-B*08:01): ≥ 20000 nM
- Kd (HLA-A*24:03; [29]): ≥ 20000 nM
- Kd (HLA-A*02:01 [12]): 5.74 nM
- Kd (HLA-B*07:02): ≥ 20000 nM
- Kd (HLA-B*58:01 [8]; [29]): ≥ 20000 nM
- Kd (HLA-A*26:01 [13]): 343 nM
- Kd (HLA-B*40:01; [29]): ≥ 20000 nM
- Kd (HLA-B*27:05; [29]): ≥ 20000 nM
Sequence: LMQWWSDYV

Sequence: LTAAVLLLI
- Kd (HLA-A*01:01 [14]): ≥ 78100 nM
- Kd (HLA-B*51:01 [15]): 647 nM
- Kd (HLA-B*58:01 [16]; source organism: Dengue virus 3 Martinique/1243/1999): 11.3 nM

Sequence: LYIEILRLL
- Kd (HLA-A*24:03; source organism: Mycobacterium avium 104): 7 nM
- Kd (HLA-C*06:02; source organism: Mycobacterium tuberculosis C): 44 nM

Sequence: MEITAEWLW
- Kd (HLA-B*44:03): 9.15 nM
- Kd (HLA-B*44:02 [17]): 4.63 nM
- Kd (HLA-B*53:01): 32.1 nM
- Kd (HLA-B*58:01 [16]; source organism: Dengue virus 3 Sri Lanka/1266/2000): 5.39 nM

- Kd (HLA-A*31:01 [10]; [30]): 246 nM
- Kd (HLA-A*03:01 [18]; [30]): ≥ 20000 nM
Sequence: MFIIKYFKK

Sequence: RSHAAIGAY
- Kd (HLA-A*31:01 [10]; [25]): ≥ 20000 nM
- Kd (HLA-A*11:01; [25]): ≥ 20000 nM
- Kd (HLA-B*46:01 [19]): ≥ 20000 nM
- Kd (HLA-B*15:01 [11]; [25]): 87 nM

- Kd (HLA-B*39:01): 87.1 nM
- Kd (HLA-A*02:01 [2]; [29]): 1.7 nM
- Kd (HLA-A*26:01 [20]; [29]): 232 nM
- Kd (HLA-C*03:03; source organism: Escherichia coli B171): ≤ 1 nM
Sequence: YIVGYYSAL

- Kd (HLA-B*46:01 [21]): ≥ 20000 nM
- Kd (HLA-B*15:01 [22]): ≥ 20000 nM
- Kd (HLA-A*03:01 [18]; [31]): ≥ 20000 nM
- Kd (HLA-B*27:03): ≥ 20000 nM
- Kd (HLA-B*57:01 [23]): ≥ 20000 nM
- Kd (HLA-A*02:01 [2]; [31]): 130 nM
- Kd (HLA-A*26:01 [20]; [31]): ≥ 20000 nM
- Kd (HLA-B*18:01 [24]): ≥ 20000 nM
- Kd (HLA-C*15:02): 771 nM
- Kd (HLA-C*06:02; [31]): 6 nM
- Kd (HLA-C*14:02): ≤ 1 nM
Sequence: YYFSYPLFV
